Molecular target: Myc-N1
Assay: co-immunoprecipitation (IP with Myc antibody), quantification of western blot bands
Conditions: HEK293 cells, more than 3 independent experiments, read off a plot

response (relative intensity) (control (without HA-RhoC), parent: est. 1.0): 0.47
response (relative intensity) (with HA-RhoC co-expressed, parent: est. 1.7): 0.2
Substance: Fam65b-GFP (from UniProt Q80U16) RL/AA
